System: T1, His-CalR (Vibrio parahaemolyticus RIMD2210633), ORF:1a4fc32f
T1 sequence: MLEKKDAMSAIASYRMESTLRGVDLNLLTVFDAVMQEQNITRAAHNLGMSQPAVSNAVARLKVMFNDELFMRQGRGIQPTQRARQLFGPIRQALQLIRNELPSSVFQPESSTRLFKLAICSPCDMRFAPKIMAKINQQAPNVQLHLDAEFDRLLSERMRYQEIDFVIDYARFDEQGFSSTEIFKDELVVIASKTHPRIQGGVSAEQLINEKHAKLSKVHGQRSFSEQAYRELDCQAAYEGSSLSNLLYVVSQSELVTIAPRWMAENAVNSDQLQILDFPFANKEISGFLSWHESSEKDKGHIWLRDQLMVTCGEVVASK
Assay: DNase I footprinting
Details: 10 mM Tris-HCl pH 7.5, 50 mM NaCl, 1 mM MgCl2, 0.5 mM EDTA, 0.5 mM DTT, 10 mg/ml salmon sperm DNA (so in the source), room temperature, 20 min (EMSA) or 30 min (ToxR …)

For “CAGGAAACAGCTATGACCGGCTTATATTTATTCTACAGATGGACAGCAATAACGTTCCACGTACAACACGTAATTAACATAGTATTTAATTTTTAAGATAACACAATTCTAATTCTTCATCGCTTGTCGATATAAACCAAAATCCCACCATAATAGAATTTAATAACCGTTAATCTTTATATGCACCAGCACTCATTTGTAAGATTAGAAGCAAGGAGTCAATTCTGGGTTTCCGGCCAAAATATAATAACTAACAACCAAAATTGATAAACACTGGCCGTCGTTTTAC (double strand) [exsB promoter, footprint fragment]”, the binding was “binds”.
